The values below come from patent EP2674440A2.

The target of experiment [1] is fusion protein containing the A3B3 domain of CEA (UniProt P06731). In words: competitive ELISA against HRP-conjugated hMN-14 IgG (1 nM). For orientation: In an ELISA, binding on a coated surface is turned into a signal by an enzyme label.
Experiment [2] addresses CEA (UniProt P06731). In words: SE-HPLC of 125I-TF2 mixed with a 20-fold molar excess of CEA.

As to TF2 (bispecific antibody), the fold avidity relative to TF1 in experiment [1] was determined as 2 fold. Also, the % of labeled TF2 shifted to a high molecular weight species in experiment [2] was 95%.
